{"source": "the nanobody polyreactivity screen of Harvey et al. (2022)", "data": [{"test": "yeast display, Sf9 membrane polyspecificity reagent, FACS + sequencing; frameworks hold sequencing errors", "procedure,_shortened": "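Sorting gates, low and high (top ~1%), were placed on anti-HA fluorescence to track expression and on streptavidin fluorescence to track reagent binding. A clone's polyreactivity label is taken from the gate it came out of. The reagent was 10% biotinylated, detergent-solubilized Sf9 membrane, applied for 1 hour at 4 °C to galactose-induced yeast display cells.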", "values": [{"sequence": "QVQLQESGGGLVQAGGSLRLSCAASGSISHYIFMGWYRQAPGKEREFVAGIGYGGTTNYADSVKGRFTISRDNAKNTVYLQMNSLKPEDTAMYYCAAREATEFYLYYWGQGTQVTVRS", "polyreactivity (PSR sort gate)": "low polyreactivity"}, {"sequence": "QVQLQESGGGLVQAGGSLRLSCAASGSISSPQFMGWYRQAPGIERELVATIANGGITYYADGVKGRFTISRDNAKNTVYLQMNSLKPEDTAVYYCNARSQGWYNTFYYWGQGTQVTVSS", "polyreactivity (PSR sort gate)": "low polyreactivity"}, {"sequence": "QVQLQESGGGLVQAGGSLRLSCAASGTIFRFRYMGWHRQAPGKERELVAGINGGTTTYYADSVIGRFTISRDNAIKTVYLQMNSLKPDDTAVYNCAAGASRLTYYDYWGQGTQVTVSS", "polyreactivity (PSR sort gate)": "low polyreactivity"}, {"sequence": "QVQLQESGGGLVQAGGSLRLSCAASGTIFRPATKGWYRQAPGKECEFVASITIGTITNYADSVKGRFTISRDNAKNTVYLQMNSLKPEDTAVYYCAVYGTWEVDLYYWGQGTQVTVSS", "polyreactivity (PSR sort gate)": "high polyreactivity"}, {"sequence": "QVQLQESGGGLVQAGGSLRLSCAASGTISDSGLMGWYRQAPGKERELVAGISSGGITNYADSVKGRFTISRDNAKNSVDLQMNSLKPEDTAVYWGRGTQVTVSS", "polyreactivity (PSR sort gate)": "low polyreactivity"}, {"sequence": "QVQLQESGGGLVQAGGSLRLSCAASGTISPLPAMGWYRQAPGKEPEFVAGIDTGAITNYADSVKGRFTISRDNAKNTVYLQMNSLKPEDTAVYYCAVFPAAYDYYERYYTYWGQGTQVTVIS", "polyreactivity (PSR sort gate)": "low polyreactivity"}, {"sequence": "QVQLQESGGGLVQAGGSLRLSCAASGTISTIEPMGWYRQAPGKERELVACIGAGTITNYADSVKGRFTISRDNDTVYLQMNSLKPEDTAVYYCNADGWYALYEWLAVSGYYWGQGTQVTVSS", "polyreactivity (PSR sort gate)": "low polyreactivity"}, {"sequence": "QVQLQESGGGLVQAGGSLRLSCAASGYISLAQTIGWYRQAPGKEREFVASIALGSSTYYTDSVKGSFTISRDNAKTTVYLQMNSLKPEDTAVYYCAARVGASYAHDYWGQGTQVAVSS", "polyreactivity (PSR sort gate)": "low polyreactivity"}, {"sequence": "QVQLQESGGGLVQAGGSLRLSCAASGYISSWYPMGSYRQAPGKEREFVATIAPGATTYYADSVKGRFTISRDYAKNTVYLQMNSLKPEDTAVYYCAAGPENNDFYSYGGQGTQVTVSS", "polyreactivity (PSR sort gate)": "low polyreactivity"}, {"sequence": "QVQLQESGGGLVQAGGSLRLSCAASGYISSWYPMGWYRQAPGKEREFVATIAPGATPYYADSVKGRFTISRDYAKNTVYLQMNSLKPEDTAVYYCAAGPENNDFYSYWGQGTQVTVSS", "polyreactivity (PSR sort gate)": "low polyreactivity"}, {"sequence": "QVQLQESGGGLVQAGGSLRLSCAASGYISSWYPMGWYRQAPGKEREFVATLAPGATTYYADSVKGRFTISRDYAKNTVYLQMIRLKPEDTAVYYFAAGPENNDFYSFWGQGSQVTVSS", "polyreactivity (PSR sort gate)": "low polyreactivity"}, {"sequence": "QVQLQESGGGLVQAGGSLRLSCAASGYISYCVGMGWYRQAPGKEREFVASIAVGSNTYYADSVKGRFTISRYNAKISVYLQRNSLKPEDTAVYYCSVEDSWTYRFDYWGQGTQVTVSS", "polyreactivity (PSR sort gate)": "high polyreactivity"}, {"sequence": "QVQLQESGGGLVQAGGSLRLSCAASGYISYFVGMGWYRQAPGKEREFVASIADGSNTYYADSVKGRFTISRDNAKNTVYLQRNSLKPEDTAVYYCAVEDSWTYRFDYWGQGTQVTVSS", "polyreactivity (PSR sort gate)": "high polyreactivity"}, {"sequence": "QVQLQESGGGLVQAGGSLRLSCAASGYIYSWYPMGWYLQAPGKEREFVATIAPGATTYYADSVKGRFTISRDYAKNTVYLQMNSLKTEDTAVYYCAAGAENNDFYSYWGHGTQVTVSS", "polyreactivity (PSR sort gate)": "low polyreactivity"}, {"sequence": "QVQLQESGGGLVQAGGSLRLSCAESGTIFGWDRMGRYRQAPGKERELVATIDNRGSTNYADSVKGRFTISRDNAKNTVYPQMNSLKPDDTAVYYCAVVGPTPQYHLYWGQGTQVTVSS", "polyreactivity (PSR sort gate)": "high polyreactivity"}, {"sequence": "QVQLQESGGGLVQAGGSLRLSCAESGYISHAVEMGWYRQAPGKVHELVASISNGGSTNYADSVKGRFTISRDNAKNTVYLQMNSLKSEDTAVYYCAAWTGQVDIHSYWGQGTQVSVSS", "polyreactivity (PSR sort gate)": "low polyreactivity"}, {"sequence": "QVQLQESGGGLVQAGGSLRLSCAQSGTICGWDRMGRYRQAPGKERELVATIDNRGSTNYADSVKGRFTISRDNANNTVYPQKISLKPDDTAVDYCAVVGPTPQYHLYWGQGTQVTVCS", "polyreactivity (PSR sort gate)": "high polyreactivity"}, {"sequence": "QVQLQESGGGLVQAGGSLRLSCSASGYISHADEMGWYRQAPGKEHELVASISNGGSTNYADSVKGRFTISRDNAKNTVYLQMNSLKSEDTAVYYCAAWTGQVDIHYYWGQGTQVTVSS", "polyreactivity (PSR sort gate)": "low polyreactivity"}, {"sequence": "QVQLQESGGGLVQAGGSLRLTCAASGSIYDDTYMGCYRQAPGKERELVATIDSGSTTNYADSVKGRITIRRDNAKNTVYLQMNSLKPEDTAVYFCGAADSHIDYFDYWGQGTQVTVSS", "polyreactivity (PSR sort gate)": "low polyreactivity"}, {"sequence": "QVQLQESGGGLVQAGGSLRPRCAAGGTIFVSVNMGWYRHAPGEEREFVASITQGATTNYADSLIGRFTISRDNAKNTVYLQMNCQNQEDTAVYYCAVHESGGITFTYWGQGTQVTVSS", "polyreactivity (PSR sort gate)": "high polyreactivity"}, {"sequence": "QVQLQESGGGLVQAGGSLRPSCAASGNIFVPFKMGWYRLAPGKERELVASINRGSTTNYADSVKGRFTISRDNAKNTVYLQMISLKPEDTAVYYCAAIAYPDIPTYLDYDSDYFYWDQGTQVTVSS", "polyreactivity (PSR sort gate)": "high polyreactivity"}, {"sequence": "QVQLQESGGGLVQAGGSLRPSCAASGSISDGVPMGWYRQAPGEQRELVATTVLGATTNYADSVKGRFTISRGNAKNTVYLLMNSLKPEETAVYYCAARLRYDKGFSYWGQGTQVTVSS", "polyreactivity (PSR sort gate)": "low polyreactivity"}, {"sequence": "QVQLQESGGGLVQAGGSLRQSCTASGTIYYTSAMGWYRHAPGKDREFVAAIASGSSTNYADSVKGRFTISRDNAKNTVYLKMNSLKPEVTAVYYCAASERVRNIYQYWGQGTQVSVSS", "polyreactivity (PSR sort gate)": "high polyreactivity"}, {"sequence": "QVQLQESGGGLVQAGGSLRQSYAASGYIFPSLAKGWYRQAPGKEREFVAAIGRGSTNNYADSVKGRFTISRDNAKKTAYQQMNSLKPEDTAVYYCAAAASPLTRHLYWGQGTQVTVSS", "polyreactivity (PSR sort gate)": "low polyreactivity"}, {"sequence": "QVQLQESGGGLVQAGGSLRRSCAASGSIFYHWAMGWYRQTPGKERELVASITSGGNTNYADSVKGRFTISRDNAKNTVYLPMDRLKPEDTAVYYCAADGYYGAWDLEYYYWGQGTQVTVSS", "polyreactivity (PSR sort gate)": "low polyreactivity"}, {"sequence": "QVQLQESGGGLVQAGGSMRLSCAASGSISELRPMGWYRKAPGKERELVAGISTGGSTNYADSVKGRFTISRDNAKNTVYLQMNSQKPEDTAVYYCAAASYGEGTYDYWGQGTQVTVRS", "polyreactivity (PSR sort gate)": "high polyreactivity"}, {"sequence": "QVQLQESGGGLVQAGGSMRLSCAASGSISELRPMGWYRQAPGKERELVAGISTGGSTNYADSVKGRFTISRDNAKNTVYLQMNSLKPEDTAVYYCAAASYGEGTYDYWGQGTQVTVRS", "polyreactivity (PSR sort gate)": "high polyreactivity"}, {"sequence": "QVQLQESGGGLVQAGGSMRLSCAASGSISELSPMGWYRQAPGKERELVAGISTGGSTNYADSVKGRFTISRDNAKNTVYLQMNSLKPEDTAVYYCAAASYGEGSYDYWGQGTQVTVRS", "polyreactivity (PSR sort gate)": "high polyreactivity"}, {"sequence": "QVQLQESGGGLVQAGGSMRLSCAASGYFSNYYSLGLYRQAPGKERELVAGIGTGTSTYYADSVKGRFTISRDNAKNTVYQQMNSLKPEDTAVYYCAAPLDTSSRIFDYWGQGTQVTVSS", "polyreactivity (PSR sort gate)": "low polyreactivity"}, {"sequence": "QVQLQESGGGLVQAGGTLRLSCAASGSFSADEDMGWYRQEQGKEREFVAGISVGGNTNYADSVKGRFTISRENAKNTVYLQINSLKPEDTAVYYCAVLQDVYDALDYWAQGTQVTVSS", "polyreactivity (PSR sort gate)": "high polyreactivity"}, {"sequence": "QVQLQESGGGLVQAGRSLRLSCEASGSISILQSMGWYRQAPGKEGELVAGINWGATTYYADSVKVRLTTSRDYAKNTVYLEMNSLKPEETAVYYCAVPTYYTYPLLYWGPGTQVTVSS", "polyreactivity (PSR sort gate)": "low polyreactivity"}, {"sequence": "QVQLQESGGGLVQAGVSLRLSCAASGNINDADIMGCYRQAPGKERELVTSITDGGSTNYADSVKGRFTISRDNAKNTVYLQMNSLKPEDTAVYYCAAIAYPVIPTSFDYNSDYSYWGQGTQVTVSS", "polyreactivity (PSR sort gate)": "low polyreactivity"}, {"sequence": "QVQLQESGGGLVQARGSLRLSCSASGNISVNGFMGWYRQAPGNVRELVASIGIGGTTYYADSVKGRFSISRDNAKNTVYLQMNSLKPEDTSVYYCAASYLYYAYSYWYQGTQVTVSS", "polyreactivity (PSR sort gate)": "low polyreactivity"}, {"sequence": "QVQLQESGGGLVQEGGSLRLRCAASRNISGSSDLGWYHQAPGKEREFVASITSGGTTYYADSVKGRFTISRDNAKNTVYLQMNSLKPEDTAVYYCAVGDPADAEFGYWGQGTQVTVSS", "polyreactivity (PSR sort gate)": "low polyreactivity"}, {"sequence": "QVQLQESGGGLVQEGGSLRLTCAASGNISPPADMGWYRQAPGKERELVASIGTGGTTNYADSVKGRFTISRDNAKNTVYLQMNSLKPDDTAVYYCAAVRYEYNPYDYWGQGTQVSVSS", "polyreactivity (PSR sort gate)": "low polyreactivity"}, {"sequence": "QVQLQESGGGLVQGGGSLRLSCAASGSNYRSWYMGWYRQAPGKERELVASITEGATTNYAYSVKAALPLAAITRNSVYRQMDSMKPEDTAVYYRGASFGSTYDLVYWGQGTQVTVSS", "polyreactivity (PSR sort gate)": "high polyreactivity"}, {"sequence": "QVQLQESGGGLVQVGGSQRLSCAASGNIFYNYAMGWYRHAHGKEREFDATINHGTSINYADSVKGRFTISRDNAKNTVYLQMNSLKPEDTAVYYCAADLSWTDNLFYWGQGTQVTVSS", "polyreactivity (PSR sort gate)": "low polyreactivity"}, {"sequence": "QVQLQESGGGLVQVGGSQRLSCAASGNNFYNYAMGWYRHAQGKEREFDATINHGTSINYADSVKGRFTISRDNAKNTVYLQMNSLKPEDTAVYYCAADLSWTDNLFYWGQGTQVTVSS", "polyreactivity (PSR sort gate)": "low polyreactivity"}, {"sequence": "QVQLQESGGGLVQVGGSQSLICAASGNIFYNYAMGWYRHAQGKEREFDATINHGTSINYADSVKGRFTISRDNAKNTVYLQMNSLKPEDTAVYYCAADLSRTDNLFYWGQGTQVTVSS", "polyreactivity (PSR sort gate)": "low polyreactivity"}, {"sequence": "QVQLQESGGGMVQAGGSLRLSCAASGSIFVSVTMGWYRQAPGKERELVASIGRGSTTNHADSVKGLFTISRDNAKNIVYLLMNSLKPEDTAVYYCAALESYAKYHGYWGQGTQVTVSS", "polyreactivity (PSR sort gate)": "low polyreactivity"}, {"sequence": "QVQLQESGGGQVQAGGSLRLSCAASGSIYDDTYMGWYRQAPGKERELVATIDSGSTTNYADSVIGRITISRDNAKNTVYLQMNSLKPEDTAVYYCAAADSHIDYFDYWGQGTQVTVSS", "polyreactivity (PSR sort gate)": "low polyreactivity"}, {"sequence": "QVQLQESGGGQVQAGGSLRLSCAASGTISPLPAMGWYRQAPGKEREFVAGIDTGAITNYADSVKGRFTISRDNAKNTVYLQMISLKPEDTAVYYCAVFPAAYDYYERYYTYWGQGTQVYVSS", "polyreactivity (PSR sort gate)": "low polyreactivity"}, {"sequence": "QVQLQESGGGQVQAGGSLRLSCAASGYISTHYFMGWYRQAPGKDREFVAGISNGSITNYADSVKGRFTISRDNARNTVYLQMNSLKPEDTEVYYGAAYEWTYVRFGYWGQGTQVTVSG", "polyreactivity (PSR sort gate)": "high polyreactivity"}, {"sequence": "QVQLQESGGGQVQAGGSLRQSCAASGSIFQATYMGWDRQAPSKEREFVASITYGSITNYADSVKGRFTIGRDNAKDTWYLQMNSLKPEDAAVYYCAVDRHYIPAFHYWGQGTQVNVSS", "polyreactivity (PSR sort gate)": "low polyreactivity"}]}]}
